The text below walks through data of PMC12742849 (Protein & Cell, 2025).

For experiment [1], the target named is ALFA-tagged RibD (RibD-ALFA), F. novicida (Francisella novicida). As to the kind of experiment: pull-down.
Experiment [2] addresses GST-tagged Francisella RibD (Francisella tularensis, UniProt A0Q460). Conditions: substrate generated in situ from GTP by E. coli RibA; with and without PEP.

Sequence of GST-tagged Francisella RibD (A0Q460 1-355): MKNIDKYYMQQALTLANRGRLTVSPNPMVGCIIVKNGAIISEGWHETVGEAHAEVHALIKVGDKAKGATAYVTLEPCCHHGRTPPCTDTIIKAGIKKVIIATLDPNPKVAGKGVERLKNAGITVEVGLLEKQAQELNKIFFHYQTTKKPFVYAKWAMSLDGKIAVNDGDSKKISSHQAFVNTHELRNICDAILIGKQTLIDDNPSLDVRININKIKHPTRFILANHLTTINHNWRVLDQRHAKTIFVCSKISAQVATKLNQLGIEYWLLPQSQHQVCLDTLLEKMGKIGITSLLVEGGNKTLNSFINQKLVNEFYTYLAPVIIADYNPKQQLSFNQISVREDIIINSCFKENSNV

In experiment [1], “FLAG-tagged enolase (enolase-FLAG), F. novicida (enzyme)” displayed a stoichiometry N of 1.

Take `Nc1nc(N[C@@H]2O[C@H](COP(=O)(O)O)[C@@H](O)[C@H]2O)c(N)c(=O)[nH]1` [2,5-diamino-6-ribosyl-amino-4(3H) pyrimidinedione 5′-phosphate]: in experiment [2], the “fluorescence of the RibD reaction product (ex 408 nm, em 485 nm)” value is given as “Results showed similar activity for both, with PEP having the same effect on each”.

Usually stoichiometry N stands for a count of units in the complex or per binding partner.
